Test results reported in paper PMC5708649, “A novel Porphyromonas gingivalis enzyme: An atypical dipeptidyl peptidase III with an ARM repeat domain” (PLoS ONE, 2017).

Experiments:
[1] = test system: E. coli BK2118 (tag, alkA); assay: MMS complementation assay; type: cell-based, Escherichia coli; settings: pUC18 constructs, 1 mM to 5 mM MMS plates, 2 days, 37°C
[2] = Thermal denaturation by circular dichroism; type: physicochemical; settings: thermal denaturation curves, CD
Procedure: Secondary structure and temperature stability of recombinant proteins were determined by recording circular dichroism spectra (CD) on a Jasco J-815 spectropolarimetar (JASCO, Easton, MD, USA) with automatic temperature control according to Jajčanin-Jozić et al.. Analysis of protein secondary structure from CD spectra was performed by using the CDSSTR program at the DICHROWEB site (http://public-1.cryst.bbk.ac.uk/cdweb/html). Protein concentrations were determined by the Bradford method.

B1: PgDPP III: full-length dipeptidyl peptidase III from P. gingivalis W83 (PG_0317), 886 aa (protein)
chain: MTKETTQHRSGERIARFADIEVLSYRADLFGTLTPKQRMLCYHLSEAALRGRDITTIQNCRYNLWVRSLMERIYTHLSKSERTDDFALLEEYLFCIWFANGIHHHYSGAKFIARFSPGFLRAALREAGVELEPEEQVLLERVLYDTDFLPKQTEQSGEEDIIKASSVNFYAPGITRAEAESHYKNLIEALPENEKSCPPSFGLNTRLIRSTSGELKDEVCCIDGLYGPAIEAVVASLEAAIPYTENEEQAACIRLLCDYYRTGDIRLYDRFCIRWVENNRTRIDFINGFTEVYADPIGIHGSWEGLVHMQDEEAGRRTRIISEHAGWFEAHSPIDARFRKKNPHGISATVVNVLTIAGDSYPATPIGINLPNADWIRAEHGSKSVTIDNITDAYNHAARGTGLYEEFIPDEEVRRHVELHADLTDSLHTDLHECLGHGSGQLLPGVPGDALGEHASTLEETRADLFALYFLADPKMIELGLLTDPDAYKANYYKYMLNGLMTQLVRIKRGEEIEEAHMRNRALIARYVLEHAERPGAMSLVCEEGKTALVIKDYEAVRAIIAGLLTEVQRIKSEGDYTAGKALVERYAVHVDPLLHEEVLTRYAKLDIAPYKGFVNPRLRPVYNSEGRLTDATIEYTEGYAEQMLRYSAEYSFLPTDSPLLQEARRLRSHLRRAMDGVLSASMREKGLHYGINFGVTREHLLRLARTADASAPLADYLWRRDVRETKILATMIFPAEELTHEQATRLLREADNVELREQLTANLLERMPEAIRSIGRWIESKETTPDMMTGVLTLAARLFTRGIFPEDVPAEKLLTLAILHLSDEEQKAELRRASALLLKRYGRGSAERTKKVLCLLPESSQDTAPVLYELCEDIRFELDFYPKDE
modifications: left off: His tag, C-terminal, state not stated
rescue of alkylation-sensitive phenotype / alkylation repair function (in words) [1]: absence of any alkylation repair function | rescue of alkylation-sensitive phenotype / alkylation repair function (in words) ([1]; listed as full length PgDPP III): does not possess alkylation repair function | Tm [2]: 50 °C
